The text below walks through data of paper PMC11326647, “In vitro reconstitution reveals membrane clustering and RNA recruitment by the enteroviral AAA+ ATPase 2C” (PLOS Pathogens, 2023).

The target in this experiment is His6-MBP-tagged poliovirus 2C([change]) (residues 1-11, 41-329) (poliovirus type 1 Mahoney) (UniProt P03300). The experiment in a line: mass photometry.

Take “His6-MBP-tagged poliovirus 2C([change]) (residues 1-11, 41-329) (from UniProt P03300 1128-1456) (natural protein)”: the stoichiometry N (commonly a count of units in the complex or per binding partner) stood at 2.
